# Experimental data: patent US20210355194A1
# Columns and labels:
# [1] = target: SARS-CoV-2 antigen of the epitope binning (SARS-CoV-2) (UniProt P0DTC2); test: epitope binning; competitor 2-5
# [2] = target: SARS-CoV-2 antigen of the epitope binning (SARS-CoV-2) (UniProt P0DTC2); test: epitope binning; competitor CR3022
# [3] = target: SARS-CoV-2 antigen of the epitope binning (SARS-CoV-2) (UniProt P0DTC2); test: epitope binning; competitor 1-16
# [4] = target: SARS-CoV-2 antigen of the epitope binning (SARS-CoV-2) (UniProt P0DTC2); test: epitope binning; competitor Acro mAb
# [5] = target: SARS-CoV-2 antigen of the epitope binning (SARS-CoV-2) (UniProt P0DTC2); test: epitope binning; competitor 2-6
# [6] = target: SARS-CoV-2 antigen of the epitope binning (SARS-CoV-2) (UniProt P0DTC2); test: epitope binning; competitor 2-8
# [7] = target: SARS-CoV-2 antigen of the epitope binning (SARS-CoV-2) (UniProt P0DTC2); test: epitope binning; competitor 1-32
# [8] = target: SARS-CoV-2 antigen of the epitope binning (SARS-CoV-2) (UniProt P0DTC2); test: epitope binning; competitor 1-35
# [9] = target: SARS-CoV-2 antigen of the epitope binning (SARS-CoV-2) (UniProt P0DTC2); test: epitope binning; competitor 2-11
# [10] = target: SARS-CoV-2 antigen of the epitope binning (SARS-CoV-2) (UniProt P0DTC2); test: epitope binning; competitor 2-2
# [11] = target: ACE2 on VERO E6 cells (African green monkey); test: flow cytometry, VERO E6 cells, positive control
Substance,epitope binning score [1],epitope binning score [2],epitope binning score [3],epitope binning score [4],epitope binning score [5],epitope binning score [6],epitope binning score [7],epitope binning score [8],epitope binning score [9],epitope binning score [10],MFI [11],MFI/Baseline [11]
CR3022 (antibody),0,0,2,2,2,0,1,2,1,0,–,–
S1 RBD Fc fusion (from UniProt P0DTC2 319-541),–,–,–,–,–,–,–,–,–,–,26100,75.9
